Source: US20130064763A1 (NATIONAL RESEARCH COUNCIL OF CANADA, published 2013)

T1: rat ICAM-1 on LPS-induced rat brain endothelial cells (SV-RBEC) (rat, UniProt Q00238 28-545)
T1 construct: whole, on cells; Endogenous protein on fixed cells
T1 sequence (looked up): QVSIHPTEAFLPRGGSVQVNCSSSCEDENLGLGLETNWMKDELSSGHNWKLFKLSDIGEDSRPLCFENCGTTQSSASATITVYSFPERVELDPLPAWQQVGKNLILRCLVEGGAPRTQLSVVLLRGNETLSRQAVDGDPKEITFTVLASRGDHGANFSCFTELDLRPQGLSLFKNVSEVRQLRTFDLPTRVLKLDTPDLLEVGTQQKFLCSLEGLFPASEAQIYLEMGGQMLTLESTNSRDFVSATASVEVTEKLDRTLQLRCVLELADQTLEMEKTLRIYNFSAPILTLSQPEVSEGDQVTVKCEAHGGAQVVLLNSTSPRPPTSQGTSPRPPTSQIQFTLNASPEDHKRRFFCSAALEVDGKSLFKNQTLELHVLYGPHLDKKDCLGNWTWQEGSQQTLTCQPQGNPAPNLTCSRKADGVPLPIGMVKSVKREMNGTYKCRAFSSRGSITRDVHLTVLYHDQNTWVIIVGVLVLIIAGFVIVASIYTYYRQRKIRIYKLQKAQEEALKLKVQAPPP


How the values were obtained:
[1] = molecular target: T1, rat ICAM-1 on LPS-induced rat brain …; assay: immunofluorescence with Cy5.5-labelled sdAb on fixed SV-RBEC cells with or without LPS
Method: Rat brain endothelial cells (SV-RBEC) were cultured on coverslips for 3 days in DMEM and 10% FBS. ICAM-1 expression was induced by adding 5 μg (1 mg/ml) of lipopolysaccharide (LPS; Sigma) overnight. Cells were then washed 3× with cold PBS, fixed with 3.7% formaldehyde for 20 min, washed again 3× in PBS at RT, and then blocked with 5% of normal goat serum/PBS for 1 h at RT. 25 μg anti-ICAM-1 IgG or 50 μg anti-ICAM-1 single domain antibodies (34-1, 11-4, 5-5) labelled with Cy5.5 (red) were incubated for 1 h at RT then washed 3× in PBS. The washed cells were incubated in 1:500 WGA-FITC/PBS for 1 min on ice, for membrane staining (green) then washed again 3× with PBS. Coverslips were then mounted in DAKO mounting medium containing 2 μg/ml of Hoechst for nuclear staining (blue).

recombinant human ICAM-1 = molecular target: T2, recombinant human ICAM-1 (human, UniProt P05362 28-480); assay: SPR (Biacore 3000), ICAM-1 captured on SA chip, monomeric VHH injected, 25 C
T2 construct: Bought recombinant protein; In SPR it was captured on an SA sensor chip; also called intercellular adhesion molecule 1; CD54
Method: Three clones (5-5, 11-4, and 34-1) obtained in Example 4 were individually passed through size exclusion columns, Superdex 75 (GE Healthcare) in 10 mM HEPES, pH 7.4, containing 150 mM NaCl, 3 mM EDTA; monomeric sdAb fractions were collected and protein concentrations were determined by measuring A₂₈₀. SPR analyses were performed with Biacore 3000 instrument (GE Healthcare). All measurements were carried out at 25° C. in 10 mM HEPES, pH 7.4, containing 150 mM NaCl, 3 mM EDTA and 0.005% surfactant P20 (GE Healthcare). Approximately 700-900 RUs of the recombinant ICAM-1 was captured on SA sensor chip (GE Healthcare) at a flow rate of 5 μl/min. Various concentration of the monomeric VHH were injected over the ICAM-1 surface, using a SA surface as a reference, at a flow rate of 40 μl/min. Surfaces were generated by washing with running buffer. Data were analysed with BIAevaluation 4.1 software.

[2] = molecular target: T3, mouse ICAM-1 in vivo (vasculature and atherosclerotic plaques of ApoE KO mice) (mouse, UniProt P13597 28-537); assay: in vivo near-infrared optical imaging of ApoE KO and control mice after injection of Cy5.5-labelled sdAb
T3 construct: whole, on cells; Endogenous protein in the living animal; also called ICAM-1 receptor
Method: Anti-ICAM-1 antibodies were labelled with Cy5.5 succimidyl ester using methods recommended by the manufacturer (GE Healthcare). […] The presence of plaques in the aorta of atherosclerotic mice (Example 6) was visualized monthly via tail vein injection of 50 μg of anti-ICAM-1 sdAb using non-invasive in vivo optical imaging. In vivo imaging studies were performed using a small-animal time-domain eXplore Optix MX2 pre-clinical imager (Advanced Research Technologies, Montreal, QC) at 4, 24, 48, and 72 h after injection. For imaging, mice were first anesthetized with isofluorane, and then positioned on an animal stage in a chamber that allows for maintenance of gaseous anesthesia. A pre-injection scan was routinely performed to determine baseline fluorescence level. At the end of the study, animals were euthanized and perfused, organs were removed and imaged. […] The fluorescence emission at 700 nm was collected by a highly sensitive time-correlated single photon counting system and detected through a fast photomultiplier tube. The data were recorded as temporal point-spread functions (TPSF) and the images were reconstructed as fluorescence concentration maps using ART Optix Optiview analysis software 2.0 (Advanced Research Technologies, Montreal, QC).

T2 sequence (P05362 28-480 limits assumed): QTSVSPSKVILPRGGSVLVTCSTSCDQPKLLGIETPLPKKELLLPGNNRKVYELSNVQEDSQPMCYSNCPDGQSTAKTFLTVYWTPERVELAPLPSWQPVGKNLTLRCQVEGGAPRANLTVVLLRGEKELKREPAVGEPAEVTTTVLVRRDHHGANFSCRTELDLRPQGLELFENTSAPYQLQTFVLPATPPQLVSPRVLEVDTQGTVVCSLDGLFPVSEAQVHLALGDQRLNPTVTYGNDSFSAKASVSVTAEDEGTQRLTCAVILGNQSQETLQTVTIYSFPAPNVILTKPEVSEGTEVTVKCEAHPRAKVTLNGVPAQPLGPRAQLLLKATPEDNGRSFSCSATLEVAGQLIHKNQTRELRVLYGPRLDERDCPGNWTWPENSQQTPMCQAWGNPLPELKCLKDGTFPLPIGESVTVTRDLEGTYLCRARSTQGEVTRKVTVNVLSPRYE
T3 sequence (P13597 28-537): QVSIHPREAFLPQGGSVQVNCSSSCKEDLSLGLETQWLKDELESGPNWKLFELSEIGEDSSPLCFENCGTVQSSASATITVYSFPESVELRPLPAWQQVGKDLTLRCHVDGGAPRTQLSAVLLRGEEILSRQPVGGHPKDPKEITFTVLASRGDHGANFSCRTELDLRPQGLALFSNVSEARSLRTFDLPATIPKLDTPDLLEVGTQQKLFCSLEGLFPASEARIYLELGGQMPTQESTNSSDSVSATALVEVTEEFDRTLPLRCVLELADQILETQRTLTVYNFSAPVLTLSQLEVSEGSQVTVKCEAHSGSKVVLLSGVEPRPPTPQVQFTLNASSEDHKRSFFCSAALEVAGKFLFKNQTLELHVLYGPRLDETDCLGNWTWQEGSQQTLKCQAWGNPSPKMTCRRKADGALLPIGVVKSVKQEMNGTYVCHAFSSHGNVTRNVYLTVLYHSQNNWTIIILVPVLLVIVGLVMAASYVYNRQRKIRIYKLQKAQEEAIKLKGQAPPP

| Binder | binding result [1] | Kd (recombinant human ICAM-1) [µM] | koff (recombinant human ICAM-1) [s⁻¹] | kon (recombinant human ICAM-1) [M⁻¹ s⁻¹] | binding result [2] |
| --- | --- | --- | --- | --- | --- |
| anti-ICAM-1 sdAb clone 34-1 labelled with Cy5.5 (VHH, labelled with Cy5.5 succimidyl ester, dye/antibody ratio of two; labelled residues not stated, Cy5.5 conjugate of m3) VHH: QVKLEESGGGLVQPGGSLRLSCAASGSIFSINDMGWYRQAPGKQRELVARITRDGSAAYEDSVKGRFTISRDNAPNTVFLQMNGLKPEDTAVYYCNAEIITTQTLGRMLGEYWGQGTQVTVSS | binds | – | – | – | – |
| anti-ICAM sdAb clone 34-1 (VHH, Soluble His6-tagged VHH expressed in E. coli from pSJF2, purified by IMAC, monomeric by SEC; also called llama sdAb clone 34-1) VHH: QVKLEESGGGLVQPGGSLRLSCAASGSIFSINDMGWYRQAPGKQRELVARITRDGSAAYEDSVKGRFTISRDNAPNTVFLQMNGLKPEDTAVYYCNAEIITTQTLGRMLGEYWGQGTQVTVSS | – | 0.01 | 0.002 | 100000 | – |
| anti-ICAM-1 sdAb clone 11-4 labelled with Cy5.5 (VHH, labelled with Cy5.5 succimidyl ester, dye/antibody ratio of two; labelled residues not stated, also called anti-ICAM-1 sdAb 11-4-Cy5.5; anti-ICAM-1 11-4 sdAb-Cy5.5) VHH: QVQLVESGGGLVQPGGSLRLSCAASGSISSLYVMGWYRQAPGKQRELVADITSSGSIYYVDSLKGRFTISRDNARSTVYLQMNSLEPEDTAVYYCMAHVRQDSGSEYLTYWGQGTQVTVSS | binds | – | – | – | binds |
| anti-ICAM sdAb clone 11-4 (VHH, Soluble His6-tagged VHH expressed in E. coli from pSJF2, purified by IMAC, monomeric by SEC; also called llama sdAb clone 11-4; anti-ICAM-1 sdAb 11-4) VHH: QVQLVESGGGLVQPGGSLRLSCAASGSISSLYVMGWYRQAPGKQRELVADITSSGSIYYVDSLKGRFTISRDNARSTVYLQMNSLEPEDTAVYYCMAHVRQDSGSEYLTYWGQGTQVTVSS | – | 0.0009 | 0.002 | 2e+06 | – |
| anti-ICAM sdAb clone 5-5 (VHH, Soluble His6-tagged VHH expressed in E. coli from pSJF2, purified by IMAC, monomeric by SEC; also called llama sdAb clone 5-5) VHH: QVKLEESGGGLVQAGDSLRLSCAASGRTVNAFRMGWYRQAPGKQRERVAVITAGGTTSYIDSVKGRFTISRDNAKNTVYLQMNSLKPEDTAVYYCAAIDYDSRGQGTQVTVSS | – | 0.06 | 0.004 | 70000 | – |
| anti-ICAM-1 sdAb clone 5-5 labelled with Cy5.5 (VHH, labelled with Cy5.5 succimidyl ester, dye/antibody ratio of two; labelled residues not stated, Cy5.5 conjugate of m2) VHH: QVKLEESGGGLVQAGDSLRLSCAASGRTVNAFRMGWYRQAPGKQRERVAVITAGGTTSYIDSVKGRFTISRDNAKNTVYLQMNSLKPEDTAVYYCAAIDYDSRGQGTQVTVSS | binds | – | – | – | – |
